The results in this text go back to patent publication JP2014141434A (dated 2014).

One assay addresses T1, ヒトROBO2 (human).
T1 construct: also called hROBO2; pCI−hROBO2
T1 chain: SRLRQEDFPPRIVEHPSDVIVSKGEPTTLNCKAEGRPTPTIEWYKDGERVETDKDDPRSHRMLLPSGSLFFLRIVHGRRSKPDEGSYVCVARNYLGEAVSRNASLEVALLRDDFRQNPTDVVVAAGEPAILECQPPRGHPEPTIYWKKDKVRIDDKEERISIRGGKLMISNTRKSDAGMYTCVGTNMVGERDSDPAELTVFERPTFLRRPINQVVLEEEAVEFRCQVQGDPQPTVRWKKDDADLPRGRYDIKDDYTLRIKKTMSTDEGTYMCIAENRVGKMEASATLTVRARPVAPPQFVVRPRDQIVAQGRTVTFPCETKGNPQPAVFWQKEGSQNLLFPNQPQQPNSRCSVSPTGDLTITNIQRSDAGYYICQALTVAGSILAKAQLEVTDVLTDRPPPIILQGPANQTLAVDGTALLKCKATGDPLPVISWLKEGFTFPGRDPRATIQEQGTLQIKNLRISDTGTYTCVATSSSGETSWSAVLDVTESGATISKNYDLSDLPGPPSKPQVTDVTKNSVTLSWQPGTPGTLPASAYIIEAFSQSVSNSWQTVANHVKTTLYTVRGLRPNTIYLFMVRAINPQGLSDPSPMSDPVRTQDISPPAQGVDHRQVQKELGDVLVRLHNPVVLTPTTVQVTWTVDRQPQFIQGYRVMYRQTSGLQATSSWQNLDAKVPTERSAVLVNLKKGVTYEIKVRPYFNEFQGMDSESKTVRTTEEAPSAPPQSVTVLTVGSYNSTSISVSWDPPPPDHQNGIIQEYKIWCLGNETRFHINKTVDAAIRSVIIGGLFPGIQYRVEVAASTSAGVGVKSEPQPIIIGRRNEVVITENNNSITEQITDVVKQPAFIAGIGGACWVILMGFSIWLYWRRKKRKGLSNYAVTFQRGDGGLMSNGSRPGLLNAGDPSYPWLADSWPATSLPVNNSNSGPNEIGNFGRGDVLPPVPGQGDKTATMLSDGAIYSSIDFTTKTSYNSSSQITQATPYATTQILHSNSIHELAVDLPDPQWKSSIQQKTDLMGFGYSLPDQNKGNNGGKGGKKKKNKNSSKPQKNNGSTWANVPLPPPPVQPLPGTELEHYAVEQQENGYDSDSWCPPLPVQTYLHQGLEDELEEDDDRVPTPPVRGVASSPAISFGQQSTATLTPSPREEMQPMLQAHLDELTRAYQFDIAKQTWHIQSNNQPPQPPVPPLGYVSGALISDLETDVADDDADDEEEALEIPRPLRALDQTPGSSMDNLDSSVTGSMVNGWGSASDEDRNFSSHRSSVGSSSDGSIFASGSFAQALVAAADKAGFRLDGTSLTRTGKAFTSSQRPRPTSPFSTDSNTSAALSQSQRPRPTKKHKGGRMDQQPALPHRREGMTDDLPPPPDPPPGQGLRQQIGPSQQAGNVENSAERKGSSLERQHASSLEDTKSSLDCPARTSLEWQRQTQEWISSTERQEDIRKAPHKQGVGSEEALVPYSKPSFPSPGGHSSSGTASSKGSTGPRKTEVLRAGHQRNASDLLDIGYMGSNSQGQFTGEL
The assay can be described thus: flow cytometry, transfected HEK293 cells.

In assay [1] the target is T2, マウスROBO4 (pCI−mROBO4導入細胞) (mouse, UniProt Q8C310 28-1012).
T2 construct: also called mouse ROBO4; mROBO4
T2 sequence: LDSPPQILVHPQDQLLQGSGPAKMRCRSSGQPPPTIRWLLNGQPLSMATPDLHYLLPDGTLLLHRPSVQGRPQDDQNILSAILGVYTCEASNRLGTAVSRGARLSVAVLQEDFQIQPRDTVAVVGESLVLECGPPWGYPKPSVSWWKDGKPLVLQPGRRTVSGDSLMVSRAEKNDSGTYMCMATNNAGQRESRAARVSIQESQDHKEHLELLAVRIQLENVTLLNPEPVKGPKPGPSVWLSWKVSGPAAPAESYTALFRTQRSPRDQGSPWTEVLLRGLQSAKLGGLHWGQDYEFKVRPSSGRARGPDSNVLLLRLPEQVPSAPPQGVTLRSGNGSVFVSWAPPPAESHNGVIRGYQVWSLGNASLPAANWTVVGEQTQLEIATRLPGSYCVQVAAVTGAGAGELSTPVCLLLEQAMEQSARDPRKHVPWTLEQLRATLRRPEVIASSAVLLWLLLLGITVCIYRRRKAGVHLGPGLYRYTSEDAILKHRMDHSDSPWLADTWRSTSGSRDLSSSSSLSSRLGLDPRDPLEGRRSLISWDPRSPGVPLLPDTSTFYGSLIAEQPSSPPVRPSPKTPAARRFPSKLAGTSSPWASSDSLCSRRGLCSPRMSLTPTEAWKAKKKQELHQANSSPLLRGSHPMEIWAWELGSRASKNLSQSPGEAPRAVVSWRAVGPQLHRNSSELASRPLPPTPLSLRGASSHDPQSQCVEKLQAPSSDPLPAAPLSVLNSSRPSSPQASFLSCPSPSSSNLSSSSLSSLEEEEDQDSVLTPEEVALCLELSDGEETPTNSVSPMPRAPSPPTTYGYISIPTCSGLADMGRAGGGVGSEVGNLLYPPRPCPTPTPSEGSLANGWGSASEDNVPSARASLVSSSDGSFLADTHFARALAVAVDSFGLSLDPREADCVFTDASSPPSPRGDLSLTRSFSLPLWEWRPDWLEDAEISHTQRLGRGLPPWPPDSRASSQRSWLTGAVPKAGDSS
Briefly: flow cytometry, transfected HEK293 cells.

B1: 抗ROBO4マウスモノクローナル抗体 MAb1 (antibody, V domains shown)
VH: EVQLVESGGGLVKPGGSLKLSCAASGFTFSTYAMSWVRQTPEKRLEWVATISNGGTYTYYPDSVKGRFTISRDNAENTLYLQMSSLRSEDTAMYFCARLIYYDYLDYWGHGTTLTVSS
VL: DAVMTQTPLSLPVSLGDQASISCRSSQSLENSNGNTYLNWYFQKPGQSPQLLIYRVSNRFSGVLDRFSGSGSGTDFTLKISRVEAEDFGVYFCLQVTHVPWTFGGGTKLEIKR
notes: Mouse IgG1 (gamma 1) / kappa from a hybridoma; The constant regions are not in the listing; also called MAb1
Regarding B1, the binding result (with ヒトROBO2; in assay [1]) was “no binding (tested: 10 μg/mL)” in each case.

B2: ヒト化MAb1抗体 H−2143 (antibody, human IgG2, kappa, V domains shown)
VH: EVQLVESGGGLVQPGGSLRLSCAASGFTFSTYAMSWVRQAPGKRLEWVATISQGGTYTYYPDSVKGRFTISRDNAKNTLYLQMNSLRAEDTAVYYCARLIYYDYLDYWGQGTLVTVSS
VL: DIVMTQSPLSLPVTLGEPASISCRSSQSLENENKNLYLNWYLQKPGQSPQLLIYRVSNRFSGVPDRFSGSGSGTDFTLKISRVEAEDVGVYYCLQVTHVPWTFGPGTKVDIKR
notes: Humanised IgG2 / kappa; also called H-2143; hMAb1-H4 / hMAb1-L2
For B2, the binding result with ヒトROBO2 is “no binding (tested: 10 μg/mL (method of 4)-4-2))”; in assay [1], “no binding (tested: 10 μg/mL (method of 4)-3-2))”.

B3: ヒト化MAb1抗体 H−2140 (antibody, human IgG2, kappa, V domains shown)
VH: EVQLVESGGGLVQPGGSLRLSCAASGFTFSTYAMSWVRQAPGKRLEWVATISQGGTYTYYPDSVKGRFTISRDNAKNTLYLQMNSLRAEDTAVYYCARLIYYDYLDYWGQGTLVTVSS
VL: DIVMTQSPLSLPVTLGEPASISCRSSQSLENSNGNTYLNWYLQKPGQSPQLLIYRVSNRFSGVPDRFSGSGSGTDFTLKISRVEAEDVGVYYCLQVTHVPWTFGPGTKVDIKR
notes: Humanised IgG2 / kappa; also called H-2140; hMAb1-H4 / hMAb1-L1
For B3, the binding result in the assay with ヒトROBO2 is reported as “no binding (tested: 10 μg/mL (method of 4)-4-2))”; in assay [1], “no binding (tested: 10 μg/mL (method of 4)-3-2))”.

B4: ヒト化MAb1抗体 H−1143 (antibody, human IgG2, kappa, V domains shown)
VH: EVQLVESGGGLVQPGGSLRLSCAASGFTFSTYAMSWVRQAPGKGLEWVATISQGGTYTYYPDSVKGRFTISRDNAKNTLYLQMNSLRAEDTAVYYCARLIYYDYLDYWGQGTLVTVSS
VL: DIVMTQSPLSLPVTLGEPASISCRSSQSLENENKNLYLNWYLQKPGQSPQLLIYRVSNRFSGVPDRFSGSGSGTDFTLKISRVEAEDVGVYYCLQVTHVPWTFGPGTKVDIKR
notes: Humanised IgG2 / kappa; also called H-1143; hMAb1-H2 / hMAb1-L2
Turning to B4, the binding result is given as “no binding (tested: 10 μg/mL (method of 4)-4-2))” with ヒトROBO2 and “no binding (tested: 10 μg/mL (method of 4)-3-2))” in assay [1].
